The source of these data is PMC9116965 (iScience, 2022).

Assay [1] addresses T1, SARS-CoV-2 WT RBD protein (SARS-CoV-2 (WT), UniProt P0DTC2). In words: ELISA. (An ELISA detects its analyte on a solid surface through an enzyme-linked reagent.)
The next assay concerns the target SARS-CoV RBD protein (Severe acute respiratory syndrome …, UniProt P59594). In words: cell-based or functional assay.
Assay [2] concerns the target T1, SARS-CoV-2 WT RBD protein. In words: SPR. In general terms: SPR reads the build-up and loss of mass on a sensor chip optically.

B1: S2A4 (antibody, V domains shown)
VH: EVQLVESGGGLVQPGGSLRLSCAASGFTFSSYWMNWVRQAPGKGLEWVANIKQDGSEKYYVDSVKGRFTISRDNAKNSLFLQMNSLRAEDTAVYYCARVWWLRGSFDYWGQGTLVTVSS
VL: NFMLTQPHSVSESPGKTVTISCTGSSGSIASNYVQWYQQRPGSAPTTVIYEDNQRPSGVPDRFSGSIDSSSNSASLTISGLKTEDEADYYCQSYDSSNHVVFGGGTKLTVL
On to B1, for which, in assay [1], the binding result is recorded as “binds”.

B2: STS165 (full-length IgG form) (antibody, V domains shown)
VH: EVQLVESGGGVVRPGGSLRLSCAASGFTFDDYGMSWVRQAPGKGLEWVSGINWNGGSTGYADSVKGRFTISRDNAKNSLYLQMNSLRAEDTALYHCARVGYCGGDCYSLSLAGFPDYWGQGTLVTVSS
VL: not shown
Take B2: the “pseudovirus neutralisation of SARS-CoV, IC50 (HEK-293T-hACE2 cells, luciferase)” value in the assay with SARS-CoV RBD protein is 2.09 µg/mL.

B3: STS165 Fab form (Fab, V domains shown)
VH: B2 VH
VL: not shown
As for B3, in assay [2], the “fold decrease of binding affinity against the IgG form” value is greater than 50 fold.

B4: H014 (antibody, V domains shown)
VH: EVQLVQSGAEVKKPGATVKISCKVSGYSFSNYYIHWVKQAPGKSLEWIGYIDPFNGGTSDNLKFKGAATLTADTSTDTAYMELSSLRSEDTAVYYCARSEYDPYYVMDYWGQGTTVTVSS
VL: IVLTQSPFQSVSPKEKVTITCRASQSISSNLHWYQQKPDQSPKLLIKYASQSISGIPSRFSGSGSGTDFTLTINSLEAEDFGIYFCQQTNFWPYIFGQGTKLEIL
With B4, the binding result in assay [1] is “binds”.

B5: EY6A (antibody, V domains shown)
VH: EVQLVESGGGVVQPGRSLRLSCAASAFTFSSYDMHWVRQAPGKGLEWVAVISYDGSNKYYADSVKGRFTISRDNSKNTLYLQMNSLRAEDTAVYYCAKDGGKLWVYYFDYWGQGTLVTVSS
VL: not shown
For the molecule B5, the binding result in assay [1] is recorded as “binds”.
